Tests used:
[1] = target: pUL77 (Human cytomegalovirus (cosmid pCM1075; strain not stated)) (UniProt P16726); assay: pull-down; conditions: scale: binding efficiency
[2] = target: in vitro translated, radiolabeled pUL77 (wild type, from pcDNA-UL77) (human cytomegalovirus (HCMV)) (UniProt P16726); assay: cross-linking; in vitro translated, radiolabeled protein in PBS, 0.01% glutaraldehyde, 8% SDS-PAGE, autoradiography
[3] = target: purified recombinant pUL77 (rpUL77) (human cytomegalovirus (HCMV)) (UniProt P16726); assay: cross-linking

| Substance | binding signal [1] | further results |
| --- | --- | --- |
| bio-500 bp | 2.2 |  |
| in vitro translated, radiolabeled pUL77 (wild type, from pcDNA-UL77) (from UniProt P16726 1-642) (natural protein) |  | stoichiometry N [2]: 2 |
| bio-250 bp | 0.5 |  |
| bio-1000 bp | 4.9 |  |
| purified recombinant pUL77 (rpUL77) (from UniProt P16726 1-642) (natural protein) |  | stoichiometry N [3]: 2 |

Reference: publication PMC3187746
